Source: the Immune Epitope Database (IEDB)

How the values were obtained:
[1] = target: HLA-A*24:02; assay: IEDB peptide-MHC binding, purified MHC/competitive/fluorescence; ≥ and ≤ were set here for values at or beyond the usual limits of such assays
[2] = target: HLA-B*08:01; assay: as above
[3] = target: HLA-A*80:01; assay: IEDB peptide-MHC binding, purified MHC/direct/fluorescence; filed as Kd, often an IC50 or EC50 that approximates it; ≥ and ≤ were set here for values at or beyond the usual limits of such assays
[4] = target: HLA-A*01:01; assay: IEDB peptide-MHC binding, purified MHC/competitive/fluorescence; filed as Kd, often an IC50 or EC50 that approximates it; ≥ and ≤ were set here for values at or beyond the usual limits of such assays; settings: source organism: Human immunodeficiency virus type 1 BH10
[5] = target: HLA-A*29:02; assay: as above; settings: source organism: Human immunodeficiency virus type 1 BH10
[6] = target: HLA-B*15:01; assay: IEDB peptide-MHC binding, purified MHC/competitive/fluorescence; ≥ and ≤ were set here for values at or beyond the usual limits of such assays; settings: source organism: Zaire ebolavirus
[7] = target: HLA-A*02:01; assay: as above; settings: source organism: Zaire ebolavirus
[8] = target: HLA-A*24:02; assay: IEDB peptide-MHC binding, purified MHC/competitive/fluorescence; filed as Kd, often an IC50 or EC50 that approximates it; ≥ and ≤ were set here for values at or beyond the usual limits of such assays
[9] = target: HLA-A*01:01; assay: IEDB peptide-MHC binding, purified MHC/direct/fluorescence; filed as Kd, often an IC50 or EC50 that approximates it; ≥ and ≤ were set here for values at or beyond the usual limits of such assays
[10] = target: HLA-B*15:01; assay: as above
[11] = target: HLA-B*40:01; assay: as above
[12] = target: HLA-B*08:03; assay: as above
[13] = target: HLA-B*58:01; assay: as above
[14] = target: HLA-B*18:01; assay: as above
[15] = target: HLA-B*46:01; assay: as above
[16] = target: HLA-B*27:05; assay: as above
[17] = target: HLA-B*44:02; assay: as above
[18] = target: HLA-A*03:01; assay: as above
[19] = target: HLA-A*11:01; assay: as above
[20] = target: HLA-A*02:01; assay: as above
[21] = target: HLA-A*29:02; assay: as above; settings: source organism: Influenza A virus (A/Hong Kong/507/97(H5N1))
[22] = target: HLA-B*51:01; assay: IEDB peptide-MHC binding, purified MHC/competitive/fluorescence; filed as Kd, often an IC50 or EC50 that approximates it; ≥ and ≤ were set here for values at or beyond the usual limits of such assays; settings: source organism: Influenza A virus (A/X-31(H3N2))
[23] = target: HLA-B*08:01; assay: as above; settings: source organism: Influenza A virus (A/X-31(H3N2))
[24] = target: HLA-A*02:19; assay: IEDB peptide-MHC binding, purified MHC/direct/fluorescence; filed as Kd, often an IC50 or EC50 that approximates it; ≥ and ≤ were set here for values at or beyond the usual limits of such assays
[25] = target: HLA-A*02:06; assay: as above
[26] = target: HLA-C*05:01; assay: as above; settings: source organism: Brucella melitensis bv. 1 str. 16M
[27] = target: HLA-A*02:03; assay: as above
[28] = target: HLA-A*02:11; assay: as above
[29] = target: HLA-A*02:12; assay: as above
[30] = target: HLA-A*31:01; assay: as above
[31] = target: HLA-B*07:02; assay: as above
[32] = target: HLA-A*02:16; assay: as above; settings: source organism: Brucella suis 1330
[33] = target: HLA-A*69:01; assay: as above
[34] = target: HLA-A*68:02; assay: as above; settings: source organism: Campylobacter jejuni RM1221
[35] = target: HLA-B*48:01; assay: as above; settings: source organism: Campylobacter jejuni RM1221
[36] = target: HLA-B*15:17; assay: as above; settings: source organism: Campylobacter jejuni RM1221
[37] = target: HLA-B*57:01; assay: as above; settings: source organism: Campylobacter jejuni RM1221
[38] = target: HLA-A*24:02; assay: as above; settings: source organism: Vibrio cholerae
[39] = target: HLA-B*08:01; assay: as above; settings: source organism: Vibrio vulnificus YJ016
[40] = target: HLA-A*26:01; assay: as above; settings: source organism: Vibrio vulnificus YJ016
[41] = target: HLA-B*46:01; assay: IEDB peptide-MHC binding, purified MHC/competitive/fluorescence; filed as Kd, often an IC50 or EC50 that approximates it; ≥ and ≤ were set here for values at or beyond the usual limits of such assays; settings: source organism: Mopeia Lassa virus reassortant 29
[42] = target: HLA-B*35:01; assay: as above; settings: source organism: Mopeia Lassa virus reassortant 29
[43] = target: HLA-C*06:02; assay: IEDB peptide-MHC binding, purified MHC/direct/fluorescence; filed as Kd, often an IC50 or EC50 that approximates it; ≥ and ≤ were set here for values at or beyond the usual limits of such assays; settings: source organism: Listeria monocytogenes J0161
[44] = source organism: Vaccinia virus
[45] = source organism: Vaccinia virus Copenhagen
[46] = source organism: Zaire ebolavirus
[47] = source organism: Influenza A virus (A/Hong Kong/507/97(H5N1))
[48] = source organism: Brucella abortus
[49] = source organism: Brucella suis ATCC 23445
[50] = source organism: Brucella suis 1330
[51] = source organism: Campylobacter jejuni RM1221
[52] = source organism: Vibrio cholerae
[53] = source organism: Vibrio vulnificus YJ016
[54] = source organism: Mammarenavirus lassaense

Q: Which IC50 [1, 44] does the source give for FKPPKFRAF here?
A: 52.6 µM

Q: And the IC50 [2, 44]?
A: ≥ 191 µM

Q: For FNCGGEFFY, which Kd ([3]; source organism: Human immunodeficiency virus 1) is on record?
A: 0.0526 µM

Q: What about the Kd [4] of the same sequence?
A: 0.0565 µM

Q: And the Kd [5]?
A: ≤ 0.0001 µM

Q: Which IC50 [1, 45] does the source give for GNIKHKERI here?
A: 47.7 µM

Q: And the IC50 [2, 45]?
A: ≥ 199 µM

Q: HMMVIFRLM was tested. Which IC50 [6] did it give?
A: ≥ 168 µM

Q: What about the IC50 [1, 46] of the same sequence?
A: 0.83 µM

Q: What about the IC50 [2, 46] of the same sequence?
A: ≥ 3440 µM

Q: And the IC50 [7]?
A: 0.176 µM

Q: For IFIYSFFTW, which Kd ([8]; source organism: Francisella tularensis subsp. holarctica FSC200) is on record?
A: 0.0111 µM

Q: With LAKSVFNSL as the sequence, how does the Kd [9, 47] read?
A: ≥ 20 µM

Q: What about the Kd [10, 47] of the same sequence?
A: ≥ 20 µM

Q: And the Kd [11, 47]?
A: ≥ 20 µM

Q: What about the Kd ([12]; source organism: Influenza A virus (A/Taiwan/2/2006(H1N1))) of the same sequence?
A: 2.13 µM

Q: And the Kd [13, 47]?
A: ≥ 20 µM

Q: What about the Kd [14, 47] of the same sequence?
A: ≥ 20 µM

Q: And the Kd [15, 47]?
A: ≥ 20 µM

Q: And the Kd [16, 47]?
A: ≥ 20 µM

Q: What about the Kd [17, 47] of the same sequence?
A: ≥ 20 µM

Q: What about the Kd [18, 47] of the same sequence?
A: ≥ 20 µM

Q: What about the Kd [19, 47] of the same sequence?
A: ≥ 20 µM

Q: And the Kd [20, 47]?
A: ≥ 20 µM

Q: And the Kd [21]?
A: ≥ 20 µM

Q: What about the Kd [22] of the same sequence?
A: ≥ 20 µM

Q: What about the Kd [23] of the same sequence?
A: 0.726 µM

Q: What does the source list for LSDDSGLMV?
A: Kd [9, 48]: 0.0217 µM; Kd [10, 48]: ≥ 20 µM; Kd [11, 48]: ≥ 20 µM; Kd [24, 49]: ≥ 20 µM; Kd [13, 48]: ≥ 20 µM; Kd [25, 49]: 0.062 µM; Kd [15, 48]: ≥ 20 µM; Kd [26]: 0.007 µM; Kd [16, 48]: ≥ 20 µM; Kd [27, 49]: 0.42 µM; Kd [17, 48]: ≥ 20 µM; Kd [18, 48]: ≥ 20 µM; Kd [19, 48]: ≥ 20 µM; Kd [20, 48]: 1.05 µM; Kd [28, 49]: 0.071 µM; Kd [29, 49]: 1.58 µM; Kd [30, 48]: ≥ 20 µM; Kd [31, 48]: ≥ 20 µM

Q: Which Kd [24, 50] does the source give for MRDGGSATV here?
A: ≥ 20 µM

Q: What about the Kd [25, 50] of the same sequence?
A: ≥ 10 µM

Q: And the Kd [32]?
A: ≥ 10 µM

Q: What about the Kd [33, 50] of the same sequence?
A: ≥ 20 µM

Q: And the Kd ([20]; source organism: Brucella suis)?
A: ≥ 20 µM

Q: What about the Kd [29, 50] of the same sequence?
A: ≥ 20 µM

Q: Which results are given for VQKVNPAPK?
A: Kd [9, 51]: ≥ 20 µM; Kd [34]: ≥ 20 µM; Kd [35]: ≥ 20 µM; Kd [10, 51]: 1.12 µM; Kd [11, 51]: ≥ 20 µM; Kd [36]: ≥ 20 µM; Kd ([12]; source organism: Campylobacter jejuni subsp. jejuni 81116): ≥ 20 µM; Kd [13, 51]: ≥ 20 µM; Kd [14, 51]: ≥ 20 µM; Kd [15, 51]: ≥ 20 µM; Kd [37]: ≥ 20 µM; Kd [16, 51]: ≥ 10 µM; Kd [18, 51]: 0.476 µM; Kd [20, 51]: ≥ 20 µM; Kd [30, 51]: 0.904 µM; Kd [31, 51]: ≥ 20 µM

Q: Which results are given for VVYKEAKIK?
A: Kd [9, 52]: ≥ 20 µM; Kd [10, 52]: ≥ 20 µM; Kd [11, 52]: ≥ 20 µM; Kd [24, 53]: ≥ 20 µM; Kd [38]: ≥ 20 µM; Kd [13, 52]: ≥ 20 µM; Kd [25, 53]: 0.657 µM; Kd [14, 52]: ≥ 20 µM; Kd [15, 52]: ≥ 20 µM; Kd [16, 52]: ≥ 20 µM; Kd [33, 52]: ≥ 20 µM; Kd [27, 53]: 1.12 µM; Kd [17, 52]: ≥ 20 µM; Kd [39]: ≥ 20 µM; Kd [18, 52]: 0.313 µM; Kd [20, 52]: 0.978 µM; Kd [28, 53]: 0.868 µM; Kd [29, 53]: 1.99 µM; Kd [31, 52]: ≥ 20 µM; Kd [40]: ≥ 20 µM

Q: With YQGKFYMPF as the sequence, how does the Kd ([8]; source organism: Yersinia pestis Nepal516) read?
A: 0.0003 µM

Q: YSQESPQSY was tested. Which Kd [9, 54] did it give?
A: 0.0011 µM

Q: And the Kd [3, 54]?
A: ≥ 20 µM

Q: What about the Kd [41] of the same sequence?
A: 0.842 µM

Q: What about the Kd [42] of the same sequence?
A: 0.044 µM

Q: What does the source list for YYVWMVQFF?
A: Kd [43]: ≥ 20 µM; Kd ([8]; source organism: Listeria monocytogenes J0161): 0.0002 µM
